Assay results from article PMC9403361.

Biological target: Rabenosyn-5 (as printed for the GST pull-down of Figure 7)
Test: pull-down; GST-effector fusion protein on glutathione-Sepharose beads incubated with clarified lysate of transfected cells for 1 h at 4 °C; lysis buffer 20 mM Hepes pH 7.4, 100 mM NaCl, 5 mM MgCl2, 0.1% NP40, 10% glycerol, 1 mM DTT; washed 3 times with PBS-T (1% Triton X-100); immunoblot with anti-Myc or anti-Rab antibody, bands quantified with LI-COR Odyssey

- fold binding to Rabenosyn-5 relative to EEA1: 2 to 3 fold
Substance: Rab22 (from UniProt Q9UL26 1-194) (natural protein)
